# Reference: patent US20230257479A1 (Genmab, published 2023)
# T1: full length human 5T4 (SEQ ID NO: 1) on cells (human, UniProt Q13641 32-420)
# T1 construct: Uniprot Q13641; residues 1-31 are the signal peptide; Used both for transfected HEK-293 cells and for 5T4-expressing human tumor cell lines
# T1 sequence: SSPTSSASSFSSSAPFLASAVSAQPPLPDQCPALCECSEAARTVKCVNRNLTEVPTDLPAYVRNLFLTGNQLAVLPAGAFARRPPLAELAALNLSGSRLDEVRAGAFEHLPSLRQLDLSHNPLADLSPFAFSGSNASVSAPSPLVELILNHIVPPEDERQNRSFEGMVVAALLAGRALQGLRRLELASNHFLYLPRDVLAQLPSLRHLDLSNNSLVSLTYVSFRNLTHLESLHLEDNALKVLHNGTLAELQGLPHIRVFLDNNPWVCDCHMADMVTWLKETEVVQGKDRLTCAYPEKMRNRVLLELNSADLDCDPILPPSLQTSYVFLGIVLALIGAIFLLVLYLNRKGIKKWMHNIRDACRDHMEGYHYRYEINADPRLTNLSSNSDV
# T2: full length cynomolgus monkey 5T4 on transfected HEK-293 cells (cynomolgus monkey, UniProt Q4R8Y9 35-420)
# T2 construct: Uniprot Q4R8Y9; residues 1-34 are the signal peptide; also called cynomolgus 5T4
# T2 sequence: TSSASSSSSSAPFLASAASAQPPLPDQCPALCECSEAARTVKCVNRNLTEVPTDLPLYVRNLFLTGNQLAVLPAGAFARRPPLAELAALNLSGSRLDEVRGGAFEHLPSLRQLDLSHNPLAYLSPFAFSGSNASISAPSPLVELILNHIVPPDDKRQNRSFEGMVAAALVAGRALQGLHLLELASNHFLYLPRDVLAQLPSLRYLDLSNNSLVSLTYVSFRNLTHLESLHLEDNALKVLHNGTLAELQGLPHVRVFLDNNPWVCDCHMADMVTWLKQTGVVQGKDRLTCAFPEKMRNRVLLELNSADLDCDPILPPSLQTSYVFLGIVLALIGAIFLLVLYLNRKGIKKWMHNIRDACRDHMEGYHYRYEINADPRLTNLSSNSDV
# T3: human 5T4ECDHis (mature protein of SEQ ID NO: 99) (human, UniProt Q13641 32-355)
# T3 construct: ECD of human 5T4 (aa 1-355 of Uniprot Q13641) with C-terminal His tag; residues 1-31 are the signal peptide; also called ECD of human 5T4 with a C-terminal His tag
# T3 sequence: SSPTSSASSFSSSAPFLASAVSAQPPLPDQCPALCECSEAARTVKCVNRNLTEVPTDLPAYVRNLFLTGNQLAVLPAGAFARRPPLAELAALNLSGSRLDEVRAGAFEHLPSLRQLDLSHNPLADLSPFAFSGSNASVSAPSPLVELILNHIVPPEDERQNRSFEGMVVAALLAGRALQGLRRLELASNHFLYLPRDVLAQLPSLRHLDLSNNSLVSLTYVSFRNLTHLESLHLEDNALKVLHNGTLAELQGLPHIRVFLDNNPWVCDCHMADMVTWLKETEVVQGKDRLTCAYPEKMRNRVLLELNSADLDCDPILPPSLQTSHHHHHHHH
# Columns and labels:
# [1] = molecular target: T1, full length human 5T4 (SEQ ID NO: 1) on …; assay: flow cytometry, HeLa cells, PE secondary [II)H]
# Method: Mono- and bivalent binding of 5T4 antibodies to HeLa cells was determined by flow cytometry. Cells were incubated with increasing concentrations of antibodies. After secondary labelling with Phycoerythrin (PE)-conjugated goat-anti-human IgG F(ab′)2, the mean fluorescence intensity (MFI) was determined by flow cytometry.
# After washing twice in staining buffer, cells were incubated in 50 µL secondary antibody at 4° C. for 30 min. […] Next, cells were washed twice in staining buffer, re-suspended in 120 µL staining buffer and analyzed on a BD LSRFortessa FACS (BD Biosciences, USA). Binding curves were analyzed using non-linear regression (sigmoidal dose-response with variable slope) using GraphPad Prism V7.02 software (GraphPad Software, San Diego, CA, USA).
# [2] = molecular target: T2, full length cynomolgus monkey 5T4 on …; assay: flow cytometry, HEK-293 cells transfected with cynomolgus monkey 5T4, PE secondary [II)I]
# [3] = molecular target: T3, human 5T4ECDHis (mature protein of SEQ …); assay: BLI cross-block; competitor (immobilised): IgG1-5T4-076-FEAR
# Method: (§1) Antibody cross-block analysis (epitope binning) was performed using biolayer interferometry on an Octet HTX instrument (ForteBio). 5T4 antibodies (20 µg/mL in 10 mM sodium acetate buffer pH 6.0, ForteBio) were immobilized on Amine-Reactive 2nd Generation (AR2G) biosensors (ForteBio) according to the manufacturer’s instructions. […] Next, the association response of a second 5T4 antibody (10 µg/mL) was determined for 500 s. Biosensors were regenerated by 3 times 5 s exposure to 10 mM glycine pH 2.5 followed by Sample Diluent, and the measurement was repeated with a new set of second 5T4 antibodies starting from the baseline step. Each biosensor was used four times. Measurements were performed at 30° C. using a shaker speed of 1000 rpm. Data were analyzed using Data Analysis Software v9.0.0.12 (ForteBio). The Y-axis was aligned to the association step and Savitzky-Golay filtering was applied. The response of Sample Diluent during the association step was subtracted from the association response of the second antibody in order to correct for the dissociation of 5T4ECDHis from the immobilized antibody. […] In general, responses > 0.1 nm were considered non-blocking antibody pairs (white), while responses between -0.1 and 0.1 nm were considered to be blocking antibody pairs (dark grey). […] In some cases, the data curves needed visual inspection by an expert to assign blocking, non-blocking or displacement properties to antibody pairs.
# [4] = molecular target: T3, human 5T4ECDHis (mature protein of SEQ …); assay: BLI cross-block; competitor (immobilised): IgG1-5T4-106-FEAR
# Method: as §1
# [5] = molecular target: T3, human 5T4ECDHis (mature protein of SEQ …); assay: BLI cross-block; competitor (immobilised): IgG1-5T4-H8-FEAR
# [6] = molecular target: T3, human 5T4ECDHis (mature protein of SEQ …); assay: BLI cross-block; competitor (immobilised): IgG1-5T4-A1-F405L
# Method: as §1
# [7] = molecular target: T3, human 5T4ECDHis (mature protein of SEQ …); assay: BLI cross-block; competitor (immobilised): IgG1-5T4-085-FEAR
# Method: as §1
# [8] = molecular target: T3, human 5T4ECDHis (mature protein of SEQ …); assay: BLI cross-block; competitor (immobilised): IgG1-5T4-A3-F405L
# Method: Antibody cross-block analysis (epitope binning) was performed using biolayer interferometry on an Octet HTX instrument (ForteBio). 5T4 antibodies (20 µg/mL in 10 mM sodium acetate buffer pH 6.0, ForteBio) were immobilized on Amine-Reactive 2nd Generation (AR2G) biosensors (ForteBio) according to the manufacturer’s instructions. […] Next, the association response of a second 5T4 antibody (10 µg/mL) was determined for 500 s. Biosensors were regenerated by 3 times 5 s exposure to 10 mM glycine pH 2.5 followed by Sample Diluent, and the measurement was repeated with a new set of second 5T4 antibodies starting from the baseline step. Each biosensor was used four times. Measurements were performed at 30° C. using a shaker speed of 1000 rpm. Data were analyzed using Data Analysis Software v9.0.0.12 (ForteBio). The Y-axis was aligned to the association step and Savitzky-Golay filtering was applied. The response of Sample Diluent during the association step was subtracted from the association response of the second antibody in order to correct for the dissociation of 5T4ECDHis from the immobilized antibody. The corrected association responses were plotted in a matrix format. In general, responses > 0.1 nm were considered non-blocking antibody pairs (white), while responses between -0.1 and 0.1 nm were considered to be blocking antibody pairs (dark grey). […] In some cases, the data curves needed visual inspection by an expert to assign blocking, non-blocking or displacement properties to antibody pairs.
# [9] = molecular target: T3, human 5T4ECDHis (mature protein of SEQ …); assay: BLI cross-block; competitor (immobilised): IgG1-5T4-127-FEAR
# Method: as §1
# [10] = molecular target: T3, human 5T4ECDHis (mature protein of SEQ …); assay: BLI cross-block; competitor (immobilised): IgG1-5T4-207-FEAR
# Method: as §1
# [11] = molecular target: T1, full length human 5T4 (SEQ ID NO: 1) on …; assay: flow cytometry, HEK-293 cells transfected with human 5T4, FITC secondary [I)D]
# Method: Experiments were performed in technical duplicate. After washing twice in staining buffer, cells were incubated in 50 µL secondary antibody at 4° C. for 30 min. […] Cells were washed twice in staining buffer, re-suspended in 30 µL staining buffer and analyzed on an iQue Screener (Intellicyt Corporation, USA). Binding curves were analyzed using non-linear regression (sigmoidal dose-response with variable slope) using GraphPad Prism V7.02 software (GraphPad Software, San Diego, CA, USA).
# [12] = molecular target: T3, human 5T4ECDHis (mature protein of SEQ …); assay: BLI, antibody on anti-human IgG Fc Capture biosensor, antigen in solution
# Method: Affinities of the 5T4 antibodies for recombinant 5T4 protein were determined using label-free biolayer interferometry on an Octet HTX instrument (ForteBio, Portsmouth, UK). 5T4 antibodies (1 µg/mL) were immobilized for 600 seconds on anti-human IgG Fc Capture biosensors (ForteBio). […] Data were analyzed with Data Analysis Software v9.0.0.12 (ForteBio). Values of reference wells containing only Sample Diluent during the association and dissociation steps were subtracted from values of wells containing antigen, for each antibody separately. The Y-axis was aligned to the last 10 s of the baseline and Interstep Correction alignment to dissociation as well as Savitzky-Golay filtering was applied. Responses < 0.05 nm were excluded from analysis. The data were fitted using the 1:1 model and a global full fit with 200 s association time and 1000 s or 50 s dissociation time as Window of Interest. The fit with the full dissociation time (1000 s) as Window of Interest was used by default.
# [13] = molecular target: T3, human 5T4ECDHis (mature protein of SEQ …); assay: BLI cross-block; competitor (immobilised): IgG1-5T4-059-FEAR
# Method: as §1
# [14] = molecular target: T3, human 5T4ECDHis (mature protein of SEQ …); assay: BLI cross-block; competitor (immobilised): IgG1-5T4-226-FEAR
# [15] = molecular target: T2, full length cynomolgus monkey 5T4 on …; assay: flow cytometry, HEK-293 cells transfected with cynomolgus monkey 5T4, PE secondary [II)G]
# [16] = molecular target: T1, full length human 5T4 (SEQ ID NO: 1) on …; assay: flow cytometry, HEK-293 cells transfected with human 5T4, PE secondary [II)E]
# [17] = molecular target: T2, full length cynomolgus monkey 5T4 on …; assay: flow cytometry, HEK-293 cells transfected with cynomolgus monkey 5T4, PE secondary [II)E]
binder,measurement,setting,value
"bsIgG1-huCD3-H101G-FEALx5T4-A3-FEAR (bispecific antibody, Fab-arm exchange product) heavy: not shown light: not shown VH: EVQLVESGGGLVQPKGSLKLSCAASGFTFNTYAMNWVRQAPGKGLEWVARIRSKSNNYATYYADSVKDRFTISRDDSQSMLYLQMNNLKTEDTAMYYCVRQWDYDVRAMNYWGQGTSVTVSS VL: DIVMTQSHIFMSTSVGDRVSITCKASQDVDTAVAWYQQKPGQSPKLLIYWASTRLTGVPDRFTGSGSGTDFTLTISNVQSEDLADYFCQQYSSYPYTFGGGTKLEIK",binding result,[1],binds
same,binding result,[2],binds
"IgG1-5T4-A3-F405L (antibody, V domains shown, Variable region of A3 of WO2007106744 in a human IgG1 backbone with F405L; also called surrogate A3 antibody) VH: EVQLVESGGGLVQPKGSLKLSCAASGFTFNTYAMNWVRQAPGKGLEWVARIRSKSNNYATYYADSVKDRFTISRDDSQSMLYLQMNNLKTEDTAMYYCVRQWDYDVRAMNYWGQGTSVTVSS VL: DIVMTQSHIFMSTSVGDRVSITCKASQDVDTAVAWYQQKPGQSPKLLIYWASTRLTGVPDRFTGSGSGTDFTLTISNVQSEDLADYFCQQYSSYPYTFGGGTKLEIK",corrected association response,[3],0 nm
same,corrected association response,[4],0.56 nm
same,corrected association response,[5],0.49 nm
same,corrected association response,[6],0.76 nm
same,corrected association response,[7],-0.01 nm
same,corrected association response,[8],0.01 nm
same,corrected association response,[9],-0.01 nm
"IgG1-5T4-A3-FEAR (antibody, V domains shown, Based on A3 from Wyeth; IgG1 with L234F, L235E, D265A, K409R (FEAR)) VH: EVQLVESGGGLVQPKGSLKLSCAASGFTFNTYAMNWVRQAPGKGLEWVARIRSKSNNYATYYADSVKDRFTISRDDSQSMLYLQMNNLKTEDTAMYYCVRQWDYDVRAMNYWGQGTSVTVSS VL: DIVMTQSHIFMSTSVGDRVSITCKASQDVDTAVAWYQQKPGQSPKLLIYWASTRLTGVPDRFTGSGSGTDFTLTISNVQSEDLADYFCQQYSSYPYTFGGGTKLEIK",binding result,[1],binds
same,EC50 (read off the curve),[2],~0.1 mg/L
"IgG1-5T4-H8-FEAR (antibody, V domains shown, Based on 5T4 antibody H8 from Wyeth (WO 2007/106744); IgG1 with L234F, L235E, D265A, K409R (FEAR); also called IgG1-5T4-HS-FEAR; IgG1-5T4-H8-FEAR-FITC) VH: EVQLQQSGPDLVKPGASVKISCKASGYSFTGYYMHWVKQSHGKSLEWIGRINPNNGVTLYNQKFKDKAILTVDKSSTTAYMELRSLTSEDSAVYYCARSTMITNYVMDYWGQVTSVTVSS VL: SIVMTQTPTFLLVSAGDRVTITCKASQSVSNDVAWYQQKPGQSPTLLISYTSSRYAGVPDRFIGSGYGTDFTFTISTLQAEDLAVYFCQQDYNSPPTFGGGTKLEIK",corrected association response,[3],0 nm
same,corrected association response,[4],-0.02 nm
same,corrected association response,[5],0 nm
same,corrected association response,[6],0.89 nm
same,corrected association response,[10],-0.01 nm
same,EC50 (read off the curve),[11],~0.1 mg/L
same,corrected association response,[7],-0.01 nm
same,corrected association response,[8],0.5 nm
same,Kd,[12],1.3 nM
same,koff,[12],0.00029 s⁻¹
same,kon,[12],220000 M⁻¹ s⁻¹
same,corrected association response,[13],0.01 nm
same,corrected association response,[9],-0.02 nm
same,corrected association response,[14],-0.01 nm
"bsIgG1-huCD3-H101G-FEALx5T4-127-FEAR (bispecific antibody, Fab-arm exchange product) heavy: not shown light: not shown VH: EVQLLESRGGLVQPGGSLRLSCAASGFTFSSYAMSWVRQAPGKGLEWVSTISGSGGSTYYADSVKGRFTISRDNSKKTLYLQMNSLRAEDTAVYYCAKDWGSGSYPAEYFQHWGQGTLVTVSS VL: EIVLTQSPATLSLSPGERATLSCRASQSVSSYLAWYQQKPGQAPRLLIYDASNRATGIPARFSGSGSGTDFTLTISSLEPEDFAVYYCQQRSNWLMYTFGQGTKLEIK",EC50 (read off the curve),[15],~0.1 mg/L
"IgG1-5T4-A1-F405L (antibody, V domains shown, Variable region of A1 of WO2007106744 in a human IgG1 backbone with F405L; also called surrogate A1 antibody) VH: QIQLVQSGPELKKPGETVKISCKASGYTFTNFGMNWVKQGPGEGLKWMGWINTNTGEPRYAEEFKGRFAFSLETTASTAYLQINNLKNEDTATYFCARDWDGAYFFDYWGQGTTLTVSS VL: SIVMTQTPKFLLVSAGDRVTITCKASQSVSNDVAWYQQKPGQSPKLLINFATNRYTGVPNRFTGSGYGTDFTFTISTVQAEDLALYFCQQDYSSPWTFGGGTKLEIK",corrected association response,[3],0.04 nm
same,corrected association response,[4],0.79 nm
same,corrected association response,[5],0.64 nm
same,corrected association response,[6],-0.01 nm
same,corrected association response,[10],1.29 nm
same,corrected association response,[7],0.07 nm
same,corrected association response,[8],0.69 nm
same,corrected association response,[13],0.96 nm
same,corrected association response,[9],0.15 nm
same,corrected association response,[14],1.56 nm
"bsIgG1-huCD3-H101G-FEALx5T4-076-FEAR (bispecific antibody, Fab-arm exchange product) heavy: not shown light: not shown VH: QVQLVQSGAEVKKPGASVKVSCKASGYTFTSYGISWVRQAPGQGLEWMGWISAYNGNTNYAQKLQGRVTMTTDTSTRTAYMELRSLRSDDTAVYYCARDPGYFDWLYGDYWGQGTLVTVSS VL: AIQLTQSPSSLSASVGDRVTITCRASQGISSALAWYQQKPGKAPKLLIYDASSLESGVPSRFSGSGSGTDFTLTISSLQPEDFATYYCQQFNSYPRTFGQGTKVEIK",binding result,[16],binds
same,EC50 (read off the curve),[17],~0.4 mg/L
"IgG1-5T4-076-FEAR (antibody, V domains shown, Monospecific, bivalent human IgG1 kappa with L234F, L235E, D265A, K409R (FEAR)) VH: QVQLVQSGAEVKKPGASVKVSCKASGYTFTSYGISWVRQAPGQGLEWMGWISAYNGNTNYAQKLQGRVTMTTDTSTRTAYMELRSLRSDDTAVYYCARDPGYFDWLYGDYWGQGTLVTVSS VL: AIQLTQSPSSLSASVGDRVTITCRASQGISSALAWYQQKPGKAPKLLIYDASSLESGVPSRFSGSGSGTDFTLTISSLQPEDFATYYCQQFNSYPRTFGQGTKVEIK",corrected association response,[3],-0.01 nm
same,corrected association response,[4],-0.03 nm
same,corrected association response,[5],-0.02 nm
same,EC50 (read off the curve),[16],~0.3 mg/L
same,corrected association response,[6],0.36 nm
same,corrected association response,[10],1.22 nm
same,corrected association response,[7],-0.01 nm
same,corrected association response,[8],0 nm
same,corrected association response,[13],0 nm
same,corrected association response,[9],-0.02 nm
same,corrected association response,[14],1.47 nm
same,EC50 (read off the curve),[17],~0.008 mg/L
